In article PMC10946529:

Target: T1, [FeFe]-hydrogenase CaHydA from Clostridium acetobutylicum (Clostridium acetobutylicum) (UniProt Q59262)
T1 sequence: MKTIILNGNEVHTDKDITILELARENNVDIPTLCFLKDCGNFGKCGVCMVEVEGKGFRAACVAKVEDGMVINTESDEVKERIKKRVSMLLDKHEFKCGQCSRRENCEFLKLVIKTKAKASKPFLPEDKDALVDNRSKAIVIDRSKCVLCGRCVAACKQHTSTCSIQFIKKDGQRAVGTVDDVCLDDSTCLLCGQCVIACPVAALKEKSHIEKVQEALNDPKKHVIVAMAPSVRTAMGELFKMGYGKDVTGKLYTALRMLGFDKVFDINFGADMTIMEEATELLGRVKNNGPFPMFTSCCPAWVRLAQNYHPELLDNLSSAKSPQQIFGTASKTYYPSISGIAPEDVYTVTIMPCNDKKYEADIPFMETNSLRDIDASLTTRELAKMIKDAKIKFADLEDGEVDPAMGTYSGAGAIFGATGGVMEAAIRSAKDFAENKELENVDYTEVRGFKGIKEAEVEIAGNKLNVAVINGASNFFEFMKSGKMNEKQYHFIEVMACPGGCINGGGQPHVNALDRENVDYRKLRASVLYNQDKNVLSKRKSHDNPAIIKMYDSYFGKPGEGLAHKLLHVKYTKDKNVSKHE

turnover frequency (TOF) of electron transfer from CaHydA to the Mq5 cluster in H2 oxidation, assuming cluster concentration equal to the peptide concentration: 79 s⁻¹
turnover frequency (TOF) of electron transfer from CaHydA to the Mq5 cluster in H2 oxidation, corrected for about 40 % cluster formation relative to FdM1: 31 s⁻¹
Binder: Ac-GCGGGCGGCGGCGY-NH2 (also: [4Fe4S] cluster coordinated by the four Cys) [[4Fe4S]-peptide maquette Mq5 (Ac-…-NH2)]
